Laboratory results from US20230181723A1 (UNIVERSITY OF MARYLAND COLLEGE PARK, published 2023).

Experiments:
[1] = molecular target: T1, HA-tagged HCMV US11 (pEF6-US11, gene synthesised from HCMV AD169 DNA), expressed in HeLa cells (human cytomegalovirus (AD169 DNA as …, UniProt P09727 18-215)); test: immunoprecipitation of US11 from HeLa^US11 cells, blot for Derlin-1
T1 construct: Full-length membrane glycoprotein expressed in transfected HeLa cells and tested in CHAPS lysates; also called HCMV glycoprotein US11; wild-type US11

[2] = molecular target: T1, HA-tagged HCMV US11 (pEF6-US11, gene …); test: reciprocal co-immunoprecipitation (anti-HA, anti-FLAG) from HeLa^HFE+US11 lysates
[3] = molecular target: T2, FLAG-tagged human FcRn heavy chain (pcDNA-FLAGFcRn), expressed in HeLa^FcRn cells (human, UniProt P55899 24-365); test: reciprocal co-immunoprecipitation (anti-HA for US2, anti-FLAG for FcRn) from HeLa^FcRn+US2 lysates
T2 construct: whole, on cells; it pairs with endogenous β2m in the cells; also called FcRn HC; WT FcRn

[4] = molecular target: T2, FLAG-tagged human FcRn heavy chain …; test: probing for interactions in HeLa^FcRn cells transfected with HA-tagged HCMV cDNAs
[5] = molecular target: T3, human TMEM129 (E3 ligase), endogenous in HeLa cells (human, UniProt A0AVI4 1-362); test: immunoprecipitation with anti-TMEM129 from HeLa^FcRn cells transfected with Derlin-1
T3 construct: whole, on cells; Endogenous protein in HeLa lysates; also called E3 ligase TMEM129
T3 sequence (looked up): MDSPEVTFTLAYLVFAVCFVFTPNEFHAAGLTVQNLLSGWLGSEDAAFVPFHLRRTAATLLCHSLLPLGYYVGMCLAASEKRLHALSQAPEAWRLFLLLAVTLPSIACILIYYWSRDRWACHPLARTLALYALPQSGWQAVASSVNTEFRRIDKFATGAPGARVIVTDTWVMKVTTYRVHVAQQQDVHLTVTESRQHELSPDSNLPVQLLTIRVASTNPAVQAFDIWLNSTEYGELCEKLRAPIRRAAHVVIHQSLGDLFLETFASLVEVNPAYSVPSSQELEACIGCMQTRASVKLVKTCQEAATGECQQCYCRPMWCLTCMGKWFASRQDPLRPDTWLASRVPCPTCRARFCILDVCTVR

T2 sequence (P55899 other isoform, or with tags, fused parts or gaps): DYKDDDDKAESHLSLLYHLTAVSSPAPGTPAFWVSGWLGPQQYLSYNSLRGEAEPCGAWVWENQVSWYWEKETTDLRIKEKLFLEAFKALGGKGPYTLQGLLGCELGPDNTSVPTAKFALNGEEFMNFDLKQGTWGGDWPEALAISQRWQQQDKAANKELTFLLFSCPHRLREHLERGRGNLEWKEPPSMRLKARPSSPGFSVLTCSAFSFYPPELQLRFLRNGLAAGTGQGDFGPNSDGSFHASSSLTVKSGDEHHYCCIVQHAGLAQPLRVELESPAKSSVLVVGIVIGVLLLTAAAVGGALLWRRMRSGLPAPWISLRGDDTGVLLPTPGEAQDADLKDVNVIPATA

B1: Derlin-1 in HeLa^US11 or HeLa^US11Q192L stable cells (FIG. 16A; no transfection of Derlin-1 stated) (other)
chain: SDIGDWFRSIPAITRYWFAATVAVPLVGKLGLISPAYLFLWPEAFLYRFQIWRPITATFYFPVGPGTGFLYLVNLYFLYQYSTRLETGAFDGRPADYLFMLLFNWICIVITGLAMDMQLLMIPLIMSVLYVWAQLNRDMIVSFWFGTRFKACYLPWVILGFNYIIGGSVINELIGNLVGHLYFFLMFRYPMDLGGRNFLSTPQFLYRWLPSRRGGVSGFGVPPASMRRAADQNGGGGRHNWGQGFRLGDQ
notes: whole, on cells
B1: binds [1].

B2: FLAG-tagged human HFE (hemochromatosis protein), expressed in HeLa^HFE cells (other)
chain: DYKDDDDKRLLRSHSLHYLFMGASEQDLGLSLFEALGYVDDQLFVFYDHESRRVEPRTPWVSSRISSQMWLQLSQSLKGWDHMFTVDFWTIMENHNHSKESHTLQVILGCEMQEDNSTEGYWKYGYDGQDHLEFCPDTLDWRAAEPRAWPTKLEWERHKIRARQNRAYLERDCPAQLQQLLELGRGVLDQQVPPLVKVTHHVTSSVTTLRCRALNYYPQNITMKWLKDKQPMDAKEFEPKDVLPNGDGTYQGWITLAVPPGEEQRYTCQVEHPGLDQPLIVIWEPSPSGTLVIGVISGIAVFVVILFIGILFIILRKRQGSRGAMGHYVLAERE
notes: whole, on cells; Specificity control with an MHC class I-like structure; also called HEF; HeLa^HFE+US11
B2: no binding [2].

B3: HA-tagged HCMV US2 (pEF6-US2), expressed in HeLa cells (other)
chain: MNNLWKAWVGLWTSMGPLIRLPDGITKAGEDALRPWKSTAKHPWFQIEDNRCYIDNGKLFARGSIVGNMSRFVFDPKADYGGVGENLYVHADDVEFVPGESLKWNVRNLDVMPIFETLALRLVLQGDVIWLRCVPELRVDYTSSAYMWNMQYGMVRKSYTHVAWTIVFYSINITLLVLFIVYVTVDCNLSMMWMRFFVCYPYDVPDYA
notes: whole, on cells; also called HeLa^US2; HeLa^FcRn+US2
B3: no binding [3].

B4: HA-tagged HCMV US6, expressed in HeLa^FcRn cells (other)
chain: ERSSRDPKTLLSLSPRQQACVPRTKSHRPVCYNDTGDCTDADDSWKQLGEDFAHQCLQAAKKRPKTHKSRPNDRNLEGRLTCQRVRRLLPCDLDIHPSHRLLTLMNNCVCDGAVWNAFRLIERHGFFAVTLYLCCGITLLVVILALLCSITYESTGRGIRRCGS
notes: whole, on cells
B4: binds [4].

B5: HA-tagged HCMV UL16, expressed in HeLa^FcRn cells (other)
chain: VDLGSKSSNSTCRLNVTELASIHPGETWTLHGMCISICYYENVTEDEIIGVAFTWQHNESVVDLWLYQNDTVIRNFSDITTNILQDGLKMRTVPVTKLYTSRMVTNLTVGRYDCLRCENGTTKIIERLYVRLGSLYPRPPGSGLAKHPSVSADEELSATLARDIVLVSAITLFFFLLALRIPQRLCQRLRIRLPHRYQRLRTED
notes: whole, on cells
B5: binds [4].

B6: Myc-tagged human Derlin-1 (pSectag2-Derlin-1) (other)
chain: SDIGDWFRSIPAITRYWFAATVAVPLVGKLGLISPAYLFLWPEAFLYRFQIWRPITATFYFPVGPGTGFLYLVNLYFLYQYSTRLETGAFDGRPADYLFMLLFNWICIVITGLAMDMQLLMIPLIMSVLYVWAQLNRDMIVSFWFGTRFKACYLPWVILGFNYIIGGSVINELIGNLVGHLYFFLMFRYPMDLGGRNFLSTPQFLYRWLPSRRGGVSGFGVPPASMRRAADQNGGGGRHNWGQGFRLGDQEQKLISEEDL
notes: whole, on cells; Transiently expressed in HeLa transfectants; tested in lysates; also called myc-tagged Derlin-1; Derlin-1 (WT)
B6: binds [5].
